The source of these data is the RNAGym collection of RNA variant scans (doi:10.1021/acssynbio.7b00057).

B1: Pistol ribozyme (parent)
chain: GGGUCGUUGUUCCAUAAUCGCGUGGAUAUGGCACGCAAGUUUCUACCGGGCACCGUAAAUGUCCGACUGGAGCCGUUCGGGCGGCUAUAAACAGACCUCAGGCCCGAAGCGUGGCGGCACCUGCCGCCGGUGGUAAAAAAGAUCGGAAGAGCACACGUCU

Variants of B1 are the subject of this data set. In words: aptazyme ON/OFF ratio, guanine; higher = stronger switching; co-transcriptional cleavage with and without guanine.
Turning to U8A G9U U10C C12G C13A, the “aptazyme ON/OFF ratio” value worked out at 1.15.
Regarding U7C U8A G9A U10A C12A C13U, the “aptazyme ON/OFF ratio” value is 1.26.
As to U7G U8C G9A U10A U11C C12U C13U, the “aptazyme ON/OFF ratio” value was 1.16.
Consider U8C U10A U11C C12A C13A, for which the “aptazyme ON/OFF ratio” value was found to be 1.11.
For U10C U11C, the “aptazyme ON/OFF ratio” value was determined as 1.06.
Regarding U7C U11A C12U, the “aptazyme ON/OFF ratio” value amounted to 1.18.
Take U7G U8G G9U U11G C12U C13U: the “aptazyme ON/OFF ratio” value was determined as 1.27.
To U7G G9C U11A C12A C13U belongs 1.52; to U10G U11G C12U C13U, 1.26.
To U7A U8G U10A U11G C13G belongs 1.23.
Next, U7C U8C G9U U10A U11G C12A C13G: 1.05; U7G U8A U10C U11G C12A C13G: 1.19; G9U U11G: 1.74.
Take U7A U8C G9U U10G U11A C12U C13A: the “aptazyme ON/OFF ratio” value was 1.06.
Next, U7A G9U U10A U11G C13A: 1.11; U7A G9A U10A U11G C12A C13U: 1.09.
To U7A U8C G9A C12G C13A belongs 1.13; to U7G G9A U10A C12G C13U, 1.25.
To U7A U8G G9A U10A U11A C12U C13U belongs 1.07; to U7C G9C U10C U11A C12G C13A, 1.31; to U7G U8G U10A U11C C12U C13A, 1.42.
On to U7C U8C U10C U11A C12A C13G, for which the “aptazyme ON/OFF ratio” value was 1.17.
For the variant U7G U8A G9C U10A U11G C12U, the “aptazyme ON/OFF ratio” value was 1.03.
As for U7A U8C G9U U10A U11G C12A C13G, the “aptazyme ON/OFF ratio” value came out at 1.2.
As to U7G U8G U10C C13G, the “aptazyme ON/OFF ratio” value is 1.17.
As for U7G U8C G9U U11G C12U C13G, the “aptazyme ON/OFF ratio” value was found to be 1.28.
U7G U8C U10C U11G: the “aptazyme ON/OFF ratio” value turned out to be 1.27.
For the variant U7G G9A U11C C12A C13A, the “aptazyme ON/OFF ratio” value was found to be 1.1.
Next, U7A U8C U10G U11G C12A C13A: 1.14; U7A U8A G9C U10G U11G C12G: 1.56.
As to U7G U8G G9U C12A C13U, the “aptazyme ON/OFF ratio” value came out at 1.06.
Next, U7A U10G U11C C13G: 1.08; U7C U8C G9U U10G U11A C13G: 1.1; U7A U8C G9C U11C C13A: 1.05.
For U7C U8C G9C U11A C12G C13U, the “aptazyme ON/OFF ratio” value worked out at 1.03.
Consider U8G G9U U11A, for which the “aptazyme ON/OFF ratio” value amounted to 1.73.
As to U8A U10C U11C C12A C13U, the “aptazyme ON/OFF ratio” value is 1.07.
Next, U7G U8G G9C U10A U11G C13U: 1.04; U7G U8A G9U U11C C13G: 1.05.
To U7G U8A G9U U11C C13U belongs 1.09; to U7A U8G G9C U11A C12U, 1.53; to U7A U8C U10G U11C C13G, 1.18.
Next, U7G G9C C12G C13U: 1.43.
Consider U7G U8G G9A U10G C12G C13G, for which the “aptazyme ON/OFF ratio” value was 1.16.
Next, U7A U8G U11A C13A: 1.31; U7G U8G G9C U11A C12A C13A: 1.14.
Next, U7C U8G G9A U10C U11C C12G C13G: 1.14.
Next, U8G U10C U11A C12A: 1.39; U7A U8G G9C U10C U11G C12U: 1.03; U8A G9A U11A C12A C13A: 1.3.
As to U8G G9U U10C U11C C12G C13A, the “aptazyme ON/OFF ratio” value was found to be 1.07.
As for U7G U8A G9U U11C C12U C13G, the “aptazyme ON/OFF ratio” value worked out at 1.15.
Turning to U7A U8A G9A U10A C12A C13A, the “aptazyme ON/OFF ratio” value amounted to 1.11.
Turning to U7G G9U U10G U11A C13U, the “aptazyme ON/OFF ratio” value was 1.17.
For U7C U8A G9U U11A C12U C13U, the “aptazyme ON/OFF ratio” value came out at 1.22.
To U7G U10C U11G C12G C13U belongs 1.05; to U7C U8C U10C U11G C12A C13A, 1.32; to G9A U10C, 3.12.
Next, U7A U8C G9A U10G U11C C12U: 1.06.
To U7A U10A U11G C12A C13A belongs 1.17; to U7C U8G G9U U10C U11C C12A C13A, 1.06; to U7G G9A U10A U11A C12A, 1.1.
For the variant U7A G9U U11C C12G, the “aptazyme ON/OFF ratio” value turned out to be 1.18.
For the variant U8A U10A U11G C12G C13U, the “aptazyme ON/OFF ratio” value turned out to be 1.27.
As to U7C U8A G9A U11A C12U C13G, the “aptazyme ON/OFF ratio” value was found to be 1.18.
With U7G U8A G9U U10C U11G C12A C13U, the “aptazyme ON/OFF ratio” value amounted to 1.11.
Take U8C U11G C12A: the “aptazyme ON/OFF ratio” value was 1.15.
For U7A G9U U10G U11G C13U, the “aptazyme ON/OFF ratio” value came out at 1.11.
To U8A G9A U11G C13U belongs 1.17.
As to U7A G9C U10C U11G C12A C13G, the “aptazyme ON/OFF ratio” value is 1.05.
As for U7C U8A G9C U11G C12U C13A, the “aptazyme ON/OFF ratio” value was found to be 1.18.
To U7A U8C G9C U11A C12U C13U belongs 1.07; to G9A U11C C13A, 1.03; to U7C U8C G9C U10C U11G C12A C13G, 1.04.
To G9U U10G U11A C12A belongs 1.63; to U8A G9A U10G U11A C12G, 1.24; to U7G U8C U11C C12A C13A, 1.37.
To U7C G9A U10A C12A C13G belongs 1.14.
In the case of U7C U8C G9C U10A U11G C12A C13A, the “aptazyme ON/OFF ratio” value is 1.07.
Next, U7C U8C G9A U10A U11G C12A: 1.08.
Consider U7A U8A G9C U10G U11A C12G, for which the “aptazyme ON/OFF ratio” value turned out to be 1.32.
Next, U7A U8C U10G U11G C12G C13G: 1.19; U7C U8C G9A U10C U11C C12G C13A: 1.5.
